According to the supplement of paper PMC12042874:
± gives the uncertainty stated by the source.

Assay: amyloid nucleation score (Sup35N fusion, yeast selection) (log enrichment); library NNK1; higher = more nucleation; inactive = no reads after selection
In short: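 The nucleation score is the log enrichment of output over input reads, calculated with DiMSum and centred on the mode score of non-aggregating sequences. Sequences with under 100 input reads were excluded. Reads came from Illumina sequencing of plasmid inserts from psi-negative yeast expressing Sup35N fused to peptides of 20 random codons, induced 24 hours with 100 μM copper sulfate and grown 7 days at 30°C without adenine and uracil.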

Point of comparison: DFLRIRVAKKSLDMGFIV, amyloid nucleation score -0.251 ± 0.36. Against it:
- SWKIFIRIMTDYSIQFAYSY — higher, 1.88 ± 0.098
- ARMFELRPLNRTHYSRAKRT — within error, 0.124 ± 0.5
- RLQDSLPTSEVTEIPPPAN — within error, -0.405 ± 0.33
- NTTYQTYR — higher, 4.31 ± 0.074
- RTSLNLNIRNTWAKWLGAEF — higher, 4.29 ± 0.1
- IITCRSASETMWFSCFDGLA — higher, 2.95 ± 0.17
- FIEHTYVEEG — within error, 0.19 ± 0.23
- GRMSRMILD — within error, -0.407 ± 0.69
- DTGLGVCWSAKLGYCVWGSL — higher, 6.61 ± 0.071
- MLEVKPLTCMVSPIYDFMPG — within error, -0.134 ± 0.41
- VPRLLYQFLTSHTVVDSPEV — within error, -0.069 ± 0.56
- FLKGYHCVNDDSGNFFIVYI — higher, 2.02 ± 0.11
- YVPGSRLRPYLIQSFNNSLY — higher, 2.81 ± 0.19
- TSNIRVLGHAMVNWVCWGRD — higher, 3.18 ± 0.18
- EMSIILGIERRNHCVPAMVS — within error, -0.552 ± 1.9
- TMYSVYRFVGCKKSFMVRKG — within error, 0.454 ± 0.4
- SYHPLHVCCSSVFRELVIRD — higher, 2.11 ± 0.43
- KCSVCF — higher, 2.24 ± 0.35
- EITWCF — within error, 0.485 ± 0.72
- NARPYRPSFILQSL — within error, -0.698 ± 0.54
- NPGRLRFTGTMRRTQKIEVA — within error, -0.876 ± 0.49
- LSGTNASIWY — within error, -0.212 ± 0.35
- LSRSSWQQARICARVHGLGG — higher, 1.05 ± 0.58
- TLSRFPLAALNLVRVR — within error, 0.3 ± 0.86
- FFGMLDPSTER — within error, -0.73 ± 0.36
- LFLGGVIVHSQLCMTVGCCF — higher, 6.54 ± 0.079
- IMNMIA — within error, 0.455 ± 0.48
- SNWFCGFYDWISVLFNSLKL — higher, 1.42 ± 0.65
- QTLGVGSRYVNVNSGLITQL — within error, -0.05 ± 0.29
- NIIDVTSDSCKPYHILEAIV — within error, 0.015 ± 0.34
- GFCLVVLGYCFYMFYATNNS — within error, 0.042 ± 0.9
- SNDVIVWYPIDEGHAGCAYL — higher, 1.75 ± 0.66
- WYPYTVSIPLIYVVSCIDEY — higher, 5.91 ± 0.07
- LMAPLCICKNFRPELWFNRI — within error, -0.115 ± 0.58
- QFDVVMMWQTE — within error, -0.189 ± 0.3
- ILLPWGMCWWMLCR — within error, 0.036 ± 0.55
- RLFHFWQSDGLVGSTKRVDY — within error, 0.128 ± 0.42
- HLSMFDCVYSF — higher, 1.26 ± 0.9
- TFTFVFW — higher, 3.46 ± 0.13
- SNMRRASFNHGGRWNSGRGN — within error, -1.1 ± 2.4
- SLILFV — higher, 0.856 ± 0.45
- AVCQRNLFGIVRICRSKTR — higher, 4.64 ± 0.055
- LVISETWGSCFWNSVDSCAG — higher, 0.815 ± 0.66
- GLYTLSHHGCNAQGWVRDGS — within error, 0.324 ± 0.45
- PRYNCYQQHEVALDFSSLRC — within error, -0.297 ± 0.54
- PFVLYWGKLSYYDAD — higher, 0.707 ± 0.55
- YGINMWRYLGNQEEATIVFL — within error, 0.244 ± 0.3
- RSRGCPRIFNGAKC — within error, -0.392 ± 0.23
- FATIVFVVKNENFMNADTLR — higher, 5.68 ± 0.08
- TVEGSRYFRSSLYHSARSHW — higher, 1.14 ± 0.55
- SDASHHHRYRESHDYCFFRK — within error, 0.272 ± 0.4
- RVKYAGGPIGYLFCLWVLCW — within error, -0.895 ± 1.5
- IWMIAQDGFNFQLSNR — within error, 0.282 ± 0.31
- CLWCDRTVASWAKVSASVRL — within error, -0.073 ± 0.24
- YYFILYGSVNQHRTSIFRAR — higher, 5.08 ± 0.059
- DGSLKVELQR — higher, 1.14 ± 0.49
- YTVSTRWRGVNIPYVKHAAL — higher, 0.499 ± 0.25
- DSRNTDFTCYFEIYYCCVNL — higher, 8.069 ± 0.063
- FKKSNLPSIVWRCDAWLGSS — within error, 0.334 ± 0.3
- RFTSDAQ — within error, -0.524 ± 0.24
- VERGY — higher, 1.03 ± 0.61
- FHTRVKEWVGPAFLGSANLG — within error, 0.25 ± 0.5
- YYWCAHPSCYPSVY — higher, 0.878 ± 0.58
- LMSLIMI — within error, 0.032 ± 0.44
- GVKTAYGNHAMWRDAVSRRG — within error, 0.15 ± 0.57
- LSGVLGSVAFAYIRPRTGFG — within error, -0.143 ± 1.2
- LVYGKPVNHAEGSDDSTHNG — within error, 0.205 ± 0.6
- TENVLLTYVFYAKSRLGSVV — higher, 0.921 ± 0.56
- FASILVFQNGSIATCAINWV — within error, 0.694 ± 0.84
- SKHRSIYFIPLSHVESVVVW — within error, -0.192 ± 1.1
- IRKRDFGYKSLFPNGTAMIH — within error, -0.83 ± 0.88
- CMDKCVCERHPYL — within error, -0.345 ± 1.7
- HFYSGECVFRGACRYQRRGH — within error, 0.402 ± 1.4
- LMMQRERPFRLYL — within error, -1.34 ± 1.6
- KLYNGLQHVQAGTLVMQ — within error, 0.46 ± 1.2
- CLRDNSRRGRNVQSL — within error, -1 ± 1.5
- SKCDQSIRYSRGNETPLDSL — within error, 0.274 ± 0.83
- LGWVYLHMWLGTIYYLFFVI — within error, -1.14 ± 1
- VWDRWDSGHVCYSNMAVWNV — higher, 0.536 ± 0.36
- CSVTLVVRV — within error, 0.676 ± 0.63

For LYLDIWYCQIKVTFIGP, the amyloid nucleation score was “inactive”.
In the case of VRVWTYLAWVQYLPYQMGLF, the amyloid nucleation score is reported as “inactive”.
In the case of GSVRRKRHGHLDV, the amyloid nucleation score is reported as “inactive”.
In the case of HSSWEYSSYGVPSNMEKDWV, the amyloid nucleation score is reported as “inactive”.
For VFNTGYRVSRILDLGYKFNM, the amyloid nucleation score was “inactive”.
With SSLSSMLRGSWAGYVLNCL the amyloid nucleation score was “inactive”.
